Read-outs that look alike come from different tables or passages of the source.
Assays:
[1] = target: fHbp ID 22, wild-type (variant group 2, modular group III) (Neisseria meningitidis); assay: ELISA
[2] = target: fHbp ID 77, wild-type (strain 8047, variant group 2, modular group VI) (Neisseria meningitidis); assay: ELISA
[3] = target: fHbp ID 1 on live bacteria of N. meningitidis group B strain H44/76 (Neisseria meningitidis) (UniProt E6MV22); assay: cell-based or functional assay
[4] = target: T1, human complement factor H (human, UniProt P08603 19-1231); assay: ELISA
T1 construct: also called human fH; fH
T1 sequence (P08603 19-1231 limits assumed): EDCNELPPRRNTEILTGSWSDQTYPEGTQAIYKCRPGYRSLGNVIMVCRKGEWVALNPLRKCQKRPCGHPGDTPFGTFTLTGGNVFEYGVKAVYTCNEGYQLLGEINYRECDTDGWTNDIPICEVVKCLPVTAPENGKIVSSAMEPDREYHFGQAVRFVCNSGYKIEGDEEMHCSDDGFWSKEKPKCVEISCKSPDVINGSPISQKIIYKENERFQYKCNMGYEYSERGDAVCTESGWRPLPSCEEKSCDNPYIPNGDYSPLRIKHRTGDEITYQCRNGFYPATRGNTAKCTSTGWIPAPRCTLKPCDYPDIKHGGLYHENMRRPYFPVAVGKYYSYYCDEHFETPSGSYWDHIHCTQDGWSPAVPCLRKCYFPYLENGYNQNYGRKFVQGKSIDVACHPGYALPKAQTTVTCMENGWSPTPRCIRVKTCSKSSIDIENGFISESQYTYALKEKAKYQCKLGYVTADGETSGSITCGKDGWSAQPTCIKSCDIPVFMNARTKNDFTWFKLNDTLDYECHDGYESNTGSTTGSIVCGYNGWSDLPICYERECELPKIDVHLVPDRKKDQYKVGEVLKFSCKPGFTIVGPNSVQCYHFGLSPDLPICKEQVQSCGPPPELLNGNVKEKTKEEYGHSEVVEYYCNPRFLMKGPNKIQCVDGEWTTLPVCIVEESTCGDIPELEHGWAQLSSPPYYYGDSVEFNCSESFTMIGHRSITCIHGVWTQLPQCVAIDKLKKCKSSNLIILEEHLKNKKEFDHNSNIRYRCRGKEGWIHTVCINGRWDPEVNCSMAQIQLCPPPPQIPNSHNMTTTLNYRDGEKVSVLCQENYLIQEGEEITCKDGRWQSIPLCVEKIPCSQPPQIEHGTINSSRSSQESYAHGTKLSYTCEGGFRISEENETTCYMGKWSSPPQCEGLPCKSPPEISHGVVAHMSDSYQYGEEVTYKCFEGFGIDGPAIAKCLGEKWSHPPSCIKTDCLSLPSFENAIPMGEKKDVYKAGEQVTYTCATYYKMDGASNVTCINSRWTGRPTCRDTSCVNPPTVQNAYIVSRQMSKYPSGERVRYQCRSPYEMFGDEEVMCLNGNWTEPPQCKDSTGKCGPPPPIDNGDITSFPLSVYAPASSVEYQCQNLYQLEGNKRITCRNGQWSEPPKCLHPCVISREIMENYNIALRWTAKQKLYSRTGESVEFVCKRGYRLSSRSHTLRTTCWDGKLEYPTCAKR

[5] = target: T1, human complement factor H; assay: ELISA, vs respective wildtype fHbp
[6] = target: T1, human complement factor H; assay: ELISA, fHbp on plate
[7] = target: T1, human complement factor H; assay: ELISA, vs respective wildtype fHbp; remark: listed apart in the source

For “anti-fHbp monoclonal antibody JAR 4 (murine)”, the percent less binding than to variant 1 fHbp (ID 1) [1] was 30% and the percent less binding than to variant 1 fHbp (ID 1) [2] was 30%.

Molecule “human IgG1 mouse chimeric anti-fHbp mAb JAR 5 (from UniProt P01857 1-330; P01834 1-107) (antibody)” has a Bactericidal Activity (BC50%), fH-depleted complement, mean [3] of 1.25 µg/mL and a Bactericidal Activity (BC50%), fH-repleted complement, mean [3] of 23.5 µg/mL.

“human IgG1 mouse chimeric anti-fHbp mAb502 (from UniProt P01857 1-330; P01834 1-107) (antibody)” was tested, and the Bactericidal Activity (BC50%), fH-depleted complement, mean [3] was 1.25 µg/mL and the Bactericidal Activity (BC50%), fH-repleted complement, mean [3] was > 100 µg/mL.

Molecule “human IgG1 mouse chimeric anti-fHbp mAb JAR 3 (from UniProt P01857 1-330; P01834 1-107) (antibody)” has a Bactericidal Activity (BC50%), fH-repleted complement, mean [3] of 15.2 µg/mL.

B1: fHbp ID 28 K199A mutant (other)
chain: CSSGGGGSGGGGVAADIGTGLADALTAPLDHKDKGLKSLTLEDSIPQNGTLTLSAQGAEKTFKAGDKDNSLNTGKLKNDKISRFDFVQKIEVDGQTITLASGEFQIYKQNHSAVVALQIEKINNPDKTDSLINQRSFLVSGLGGEHTAFNQLPGGKAEYHGKAFSSDDPNGRLHYSIDFTKKQGYGRIEHLKTLEQNVELAAAELAADEKSHAVILGDTRYGSEEKGTYHLALFGDRAQEIAGSATVKIGEKVHEIGIAGKQ
B1: binds [4].

B2: fHbp ID 77 R41S/K113A double mutant (other)
chain: CSSGGGGVAADIGARLADALTAPLDHKDKSLQSLTLDQSVSKNEKLKLAAQGAEKTYGNGDSLNTGKLKNDKVSRFDFIRQIEVDGQLITLESGEFQIYKQDHSAVVALQIEAINNPDKIDSLINQRSFLVSGLGGEHTAFNQLPDGKAEYHGKAFSSDDAGGKLTYTIDFAAKQGHGKIEHLKTPEQNVELAAAELKADEKSHAVILGDTRYGSEEKGTYHLALFGDRAQEIAGSATVKIGEKVHEIGIAGKQ
For B2, the “Fold-Decrease in fH binding” value [5] was > 10 fold and the “fold less binding to fH than wildtype fHbp ID 77” value [6] was ~10 fold.

B3: fHbp ID 77 R41S/K119A double mutant (other)
chain: CSSGGGGVAADIGARLADALTAPLDHKDKSLQSLTLDQSVSKNEKLKLAAQGAEKTYGNGDSLNTGKLKNDKVSRFDFIRQIEVDGQLITLESGEFQIYKQDHSAVVALQIEKINNPDAIDSLINQRSFLVSGLGGEHTAFNQLPDGKAEYHGKAFSSDDAGGKLTYTIDFAAKQGHGKIEHLKTPEQNVELAAAELKADEKSHAVILGDTRYGSEEKGTYHLALFGDRAQEIAGSATVKIGEKVHEIGIAGKQ
For B3, the “Fold-Decrease in fH binding” value [5] was > 5 fold and the “fold decrease in fH binding” value [6] was ~5 fold.

B4: fHbp ID 77 R41S/K113A/D121A triple mutant (other)
chain: CSSGGGGVAADIGARLADALTAPLDHKDKSLQSLTLDQSVSKNEKLKLAAQGAEKTYGNGDSLNTGKLKNDKVSRFDFIRQIEVDGQLITLESGEFQIYKQDHSAVVALQIEAINNPDKIASLINQRSFLVSGLGGEHTAFNQLPDGKAEYHGKAFSSDDAGGKLTYTIDFAAKQGHGKIEHLKTPEQNVELAAAELKADEKSHAVILGDTRYGSEEKGTYHLALFGDRAQEIAGSATVKIGEKVHEIGIAGKQ
For B4, the “Fold-Decrease in fH binding” value [5] was > 50 fold and the binding result [6] was “no binding”.

B5: fHbp ID 15, wild-type (natural chimera, modular group IV) (other)
chain: CSSGGGGSGGGGVAADIGAGLADALTAPLDHKDKGLKSLTLEDSISQNGTLTLSAQGAERTFKAGDKDNSLNTGKLKNDKISRFDFIRQIEVDGQLITLESGEFQVYKQSHSALTALQTEQVQDSEHSGKMVAKRQFRIGDIVGEHTSFGKLPKDVMATYRGTAFGSDDAGGKLTYTIDFAAKQGHGKIEHLKSPELNVDLAAADIKPDEKHHAVISGSVLYNQAEKGSYSLGIFGGQAQEVAGSAEVETANGIRHIGLAAKQ
notes: Recombinant; also called Pep 15 WT; peptide 15
In the case of B5, the “Fold-Decrease in fH binding” value [7] is reported as 0 fold and the “Fold-Decrease in fH binding” value [5] is reported as 0 fold.
